The supplement of paper PMC9876800

System: peptide library, one residue held at a place counted from the S/T acceptor
Test: relative phosphorylation of the sub-library (ratio to the mean residue at this position); higher = residue favoured
Summary of the method: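 Human or orthologue kinase constructs, purified and recombinant, were incubated under kinase-specific conditions in 384-well plates with biotinylated degenerate peptide sub-libraries. Each sub-library fixed one residue at one position around a central Ser/Thr. Incubations lasted 90 min with peptides at 50 μM and 50 μM ATP spiked with γ-32P-ATP, after which spots on streptavidin membranes were phosphorimaged and quantified by densitometry. Relative sub-library phosphorylation is a ratio to the mean residue at that position.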

MAP3K11, construct: aa99-398, human, sequence (Q16584 99-398, looked up): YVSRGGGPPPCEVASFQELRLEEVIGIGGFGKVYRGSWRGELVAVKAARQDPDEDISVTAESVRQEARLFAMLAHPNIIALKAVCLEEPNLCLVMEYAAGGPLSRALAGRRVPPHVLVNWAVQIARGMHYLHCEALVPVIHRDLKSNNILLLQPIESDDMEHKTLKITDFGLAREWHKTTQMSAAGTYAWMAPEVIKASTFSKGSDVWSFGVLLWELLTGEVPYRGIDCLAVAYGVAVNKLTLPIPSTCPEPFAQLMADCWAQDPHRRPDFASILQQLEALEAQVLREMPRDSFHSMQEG
PDPK1, construct: Full length, human, sequence (O15530 whole entry, looked up): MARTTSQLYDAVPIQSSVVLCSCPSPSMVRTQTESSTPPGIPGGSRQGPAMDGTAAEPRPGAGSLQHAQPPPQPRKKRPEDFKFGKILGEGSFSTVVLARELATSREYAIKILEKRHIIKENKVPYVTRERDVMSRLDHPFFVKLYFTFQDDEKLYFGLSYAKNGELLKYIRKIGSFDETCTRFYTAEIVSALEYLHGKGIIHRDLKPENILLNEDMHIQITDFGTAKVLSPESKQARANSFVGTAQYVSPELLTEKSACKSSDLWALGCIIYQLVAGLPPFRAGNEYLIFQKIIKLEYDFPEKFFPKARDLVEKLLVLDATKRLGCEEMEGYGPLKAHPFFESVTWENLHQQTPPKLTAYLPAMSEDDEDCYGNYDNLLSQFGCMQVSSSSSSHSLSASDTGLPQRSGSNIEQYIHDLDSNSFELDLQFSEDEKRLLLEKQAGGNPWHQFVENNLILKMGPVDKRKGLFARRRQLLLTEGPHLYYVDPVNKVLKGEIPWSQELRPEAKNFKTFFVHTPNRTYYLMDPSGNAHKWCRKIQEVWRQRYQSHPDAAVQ

MAP3K11, construct: aa99-398, human (from UniProt Q16584)
relative phosphorylation
Conditions | at +1 | at +2 | at +3 | at +4 | at -1 | at -2 | at -3 | at -4 | at -5
A fixed | 0.654 | 0.524 | 0.71 | 0.779 | 0.713 | 0.983 | 1.06 | 1.02 | 1.21
D fixed | 0.261 | 0.298 | 0.538 | 0.592 | 1.06 | 1.07 | 1.34 | 1.66 | 1.78
E fixed | 0.424 | 0.285 | 0.445 | 0.549 | 0.891 | 0.89 | 1.35 | 1.46 | 1.24
F fixed | 1.15 | 0.42 | 1.21 | 0.746 | 0.792 | 1.12 | 0.841 | 0.799 | 0.716
G fixed | 0.664 | 0.458 | 1.1 | 1.03 | 0.453 | 1.06 | 1.36 | 1.34 | 1.39
H fixed | 1.36 | 1.53 | 1.17 | 1.07 | 1.52 | 0.919 | 1.24 | 1.03 | 1.14
I fixed | 0.625 | 0.392 | 0.562 | 0.605 | 0.522 | 0.769 | 0.428 | 0.529 | 0.508
K fixed | 1.79 | 3.9 | 2.18 | 3.13 | 1.3 | 0.55 | 0.933 | 0.901 | 1.2
L fixed | 0.71 | 0.407 | 1 | 0.589 | 0.946 | 0.738 | 0.654 | 0.722 | 0.781
M fixed | 1.35 | 0.49 | 0.743 | 0.656 | 1.28 | 1.16 | 0.835 | 0.749 | 0.634
N fixed | 0.699 | 0.666 | 0.971 | 0.834 | 1.16 | 0.949 | 1.1 | 0.947 | 0.996
P fixed | 0.268 | 0.352 | 0.641 | 1.58 | 0.914 | 2.31 | 1.64 | 1.63 | 1.4
Q fixed | 1.33 | 0.705 | 0.753 | 0.876 | 0.901 | 0.679 | 0.948 | 0.89 | 0.865
R fixed | 2.38 | 4.19 | 1.9 | 2.01 | 1.38 | 0.678 | 0.898 | 0.918 | 0.993
V fixed | 0.903 | 0.367 | 0.756 | 0.647 | 0.771 | 0.779 | 0.581 | 0.559 | 0.903
W fixed | 1.29 | 0.729 | 1.16 | 0.527 | 0.928 | 1.16 | 0.754 | 0.924 | 0.522
Y fixed | 1.14 | 1.29 | 1.17 | 0.784 | 1.48 | 1.18 | 1.04 | 0.92 | 0.711
pThr fixed | 0.895 | 0.476 | 0.69 | 0.685 | 0.686 | 1.02 | 1.18 | 1.38 | 1.21
pTyr fixed | 0.498 | 0.528 | 0.608 | 0.454 | 1.08 | 0.972 | 1.27 | 1.06 | 1.08

PDPK1, construct: Full length, human (from UniProt O15530)
relative phosphorylation
Conditions | at +1 | at +2 | at +3 | at +4 | at -1 | at -2 | at -3 | at -4 | at -5
A fixed | 0.609 | 1.18 | 0.927 | 1.02 | 0.812 | 1.48 | 1 | 1.13 | 1.12
D fixed | 0.37 | 0.618 | 0.647 | 0.802 | 0.519 | 0.523 | 0.571 | 0.935 | 1.25
E fixed | 0.402 | 0.537 | 0.665 | 0.815 | 0.518 | 0.561 | 0.615 | 0.927 | 1.04
F fixed | 4.59 | 1.23 | 1.31 | 0.991 | 1.22 | 1.33 | 0.794 | 0.958 | 0.875
G fixed | 0.638 | 0.747 | 1.19 | 1.13 | 1.43 | 1.16 | 1.04 | 1.27 | 1.21
H fixed | 0.602 | 1.26 | 1.04 | 1.01 | 0.954 | 1 | 0.863 | 0.982 | 0.919
I fixed | 1.15 | 1.16 | 1.07 | 0.955 | 0.673 | 0.733 | 0.789 | 0.909 | 0.973
K fixed | 0.798 | 0.985 | 0.977 | 1.01 | 1.32 | 1.18 | 1.18 | 1.06 | 0.956
L fixed | 1.16 | 1.01 | 0.967 | 1 | 0.958 | 0.974 | 0.779 | 0.863 | 0.826
M fixed | 1.89 | 1.13 | 1.01 | 1.02 | 1.22 | 0.866 | 0.775 | 0.846 | 0.859
N fixed | 0.515 | 0.759 | 0.822 | 0.822 | 1.11 | 0.931 | 0.754 | 0.866 | 0.864
P fixed | 0.556 | 0.755 | 0.774 | 1.39 | 1.03 | 0.834 | 1 | 1.11 | 1.14
Q fixed | 0.622 | 0.722 | 0.77 | 0.871 | 0.847 | 0.94 | 0.843 | 0.89 | 0.788
R fixed | 0.875 | 1.18 | 1.29 | 1.21 | 1.61 | 1.49 | 3.72 | 1.18 | 1.09
V fixed | 0.664 | 1.21 | 1.02 | 0.868 | 0.661 | 0.71 | 0.762 | 1.07 | 1.19
W fixed | 0.709 | 0.98 | 1.28 | 1.13 | 0.873 | 0.987 | 0.749 | 0.994 | 0.919
Y fixed | 0.848 | 1.54 | 1.25 | 0.947 | 1.24 | 1.3 | 0.761 | 1.02 | 0.99
pThr fixed | 0.497 | 0.664 | 0.71 | 0.809 | 0.604 | 0.738 | 0.854 | 1.12 | 1.62
pTyr fixed | 0.432 | 0.616 | 0.903 | 0.852 | 0.738 | 0.821 | 1.13 | 2.5 | 2.94

MAPK9, construct: Full length, human (from UniProt P45984)
relative phosphorylation
Conditions | at +1 | at +2 | at +3 | at +4 | at -1 | at -2 | at -3 | at -4 | at -5
A fixed | 0.338 | 0.988 | 1.43 | 1.17 | 1.16 | 2.09 | 1.24 | 1.17 | 1.14
D fixed | 0.147 | 0.96 | 1.38 | 1.21 | 0.686 | 0.686 | 1.13 | 1.19 | 0.957
E fixed | 0.151 | 0.694 | 1.34 | 1.27 | 0.862 | 0.379 | 1.19 | 1.09 | 0.869
F fixed | 0.358 | 0.75 | 0.781 | 0.805 | 0.68 | 0.717 | 0.814 | 0.965 | 0.946
G fixed | 0.646 | 1.33 | 1.53 | 1.32 | 1.28 | 0.653 | 1.21 | 1.14 | 1.15
H fixed | 0.195 | 0.997 | 0.985 | 1.02 | 1 | 0.494 | 0.95 | 0.878 | 0.924
I fixed | 0.433 | 1.24 | 0.638 | 0.879 | 0.695 | 1.28 | 0.76 | 0.861 | 0.801
K fixed | 0.164 | 0.632 | 0.648 | 0.795 | 1.09 | 0.545 | 0.915 | 1.08 | 1.34
L fixed | 0.462 | 1.18 | 0.879 | 0.787 | 1.37 | 2.05 | 1.08 | 1 | 0.923
M fixed | 0.314 | 1.75 | 0.959 | 0.913 | 1.4 | 1.28 | 0.93 | 1.04 | 0.801
N fixed | 0.17 | 1.07 | 0.973 | 0.934 | 0.854 | 0.494 | 1.07 | 0.886 | 0.94
P fixed | 12.4 | 0.721 | 0.886 | 1.66 | 1.28 | 2.58 | 1.16 | 1.24 | 1.38
Q fixed | 0.193 | 1.06 | 1.01 | 1.04 | 1.36 | 0.741 | 1.07 | 1.06 | 1.02
R fixed | 0.187 | 0.803 | 0.908 | 0.802 | 1.25 | 0.635 | 1.09 | 0.938 | 1.02
V fixed | 0.339 | 1.4 | 0.845 | 0.869 | 0.76 | 1.32 | 0.768 | 0.365 | 0.833
W fixed | 0.303 | 0.69 | 0.951 | 0.817 | 0.533 | 0.543 | 0.729 | 1.02 | 0.886
Y fixed | 0.239 | 0.745 | 0.859 | 0.712 | 0.743 | 0.511 | 0.875 | 1.09 | 1.07
pThr fixed | 0.495 | 2.23 | 1.06 | 1.16 | 0.432 | 0.933 | 0.957 | 0.975 | 0.996
pTyr fixed | 0.347 | 0.987 | 1.07 | 0.719 | 0.468 | 0.429 | 0.778 | 0.808 | 0.836
